Data as given in the supplement of paper PMC10065799, “High-throughput profiling of sequence recognition by tyrosine kinases and SH2 domains using bacterial peptide display” (eLife, 2023).

What was measured:
[1] = biological target: c-Src SH2; assay: SH2 binding enrichment of the phosphorylated peptide, bacterial display (enrichment ratio); higher = better substrate or ligand; peptides without Tyr show the background
[2] = biological target: Grb2 SH2 (UniProt P62993); assay: as above
[3] = biological target: SHP2-C SH2; assay: as above
[4] = biological target: Hck (UniProt P08631); assay: phosphorylation enrichment, bacterial display (enrichment ratio); higher = better substrate or ligand; peptides without Tyr show the background
Chain of Hck (P08631 whole entry, looked up): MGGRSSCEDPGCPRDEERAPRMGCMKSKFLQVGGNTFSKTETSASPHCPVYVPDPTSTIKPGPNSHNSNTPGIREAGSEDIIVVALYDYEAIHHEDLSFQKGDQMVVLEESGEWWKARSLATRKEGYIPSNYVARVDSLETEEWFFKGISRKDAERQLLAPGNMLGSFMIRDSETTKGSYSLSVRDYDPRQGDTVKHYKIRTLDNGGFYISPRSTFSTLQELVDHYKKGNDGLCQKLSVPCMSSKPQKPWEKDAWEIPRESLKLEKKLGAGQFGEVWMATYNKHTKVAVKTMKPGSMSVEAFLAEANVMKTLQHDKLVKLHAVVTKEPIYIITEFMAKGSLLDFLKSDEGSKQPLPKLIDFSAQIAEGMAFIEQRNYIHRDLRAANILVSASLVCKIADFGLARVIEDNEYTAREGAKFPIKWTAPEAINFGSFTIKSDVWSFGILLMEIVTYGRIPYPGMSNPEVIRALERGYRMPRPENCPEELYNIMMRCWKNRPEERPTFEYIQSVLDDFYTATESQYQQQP

[5] = tested on: AncSZ; assay: as above
[6] = biological target: EPHB1 (UniProt P54762); assay: as above
[7] = biological target: Fyn (UniProt P06241); assay: as above
Chain of Fyn (P06241 whole entry, looked up): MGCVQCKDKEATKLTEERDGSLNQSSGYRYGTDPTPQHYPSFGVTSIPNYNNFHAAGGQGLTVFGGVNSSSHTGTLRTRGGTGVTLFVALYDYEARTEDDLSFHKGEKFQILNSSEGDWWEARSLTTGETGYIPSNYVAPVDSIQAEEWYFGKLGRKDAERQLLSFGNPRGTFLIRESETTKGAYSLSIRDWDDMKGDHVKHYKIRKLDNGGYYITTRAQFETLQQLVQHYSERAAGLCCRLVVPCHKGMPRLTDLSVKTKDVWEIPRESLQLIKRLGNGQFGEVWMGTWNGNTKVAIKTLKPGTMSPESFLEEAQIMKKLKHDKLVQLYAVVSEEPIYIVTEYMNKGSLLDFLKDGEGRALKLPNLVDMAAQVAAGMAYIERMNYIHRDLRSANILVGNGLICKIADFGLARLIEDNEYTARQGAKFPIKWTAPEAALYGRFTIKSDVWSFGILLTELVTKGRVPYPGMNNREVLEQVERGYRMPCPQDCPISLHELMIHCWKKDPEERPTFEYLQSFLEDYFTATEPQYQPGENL

[8] = biological target: MERTK (UniProt Q12866); assay: as above
Chain of MERTK (Q12866 whole entry, looked up): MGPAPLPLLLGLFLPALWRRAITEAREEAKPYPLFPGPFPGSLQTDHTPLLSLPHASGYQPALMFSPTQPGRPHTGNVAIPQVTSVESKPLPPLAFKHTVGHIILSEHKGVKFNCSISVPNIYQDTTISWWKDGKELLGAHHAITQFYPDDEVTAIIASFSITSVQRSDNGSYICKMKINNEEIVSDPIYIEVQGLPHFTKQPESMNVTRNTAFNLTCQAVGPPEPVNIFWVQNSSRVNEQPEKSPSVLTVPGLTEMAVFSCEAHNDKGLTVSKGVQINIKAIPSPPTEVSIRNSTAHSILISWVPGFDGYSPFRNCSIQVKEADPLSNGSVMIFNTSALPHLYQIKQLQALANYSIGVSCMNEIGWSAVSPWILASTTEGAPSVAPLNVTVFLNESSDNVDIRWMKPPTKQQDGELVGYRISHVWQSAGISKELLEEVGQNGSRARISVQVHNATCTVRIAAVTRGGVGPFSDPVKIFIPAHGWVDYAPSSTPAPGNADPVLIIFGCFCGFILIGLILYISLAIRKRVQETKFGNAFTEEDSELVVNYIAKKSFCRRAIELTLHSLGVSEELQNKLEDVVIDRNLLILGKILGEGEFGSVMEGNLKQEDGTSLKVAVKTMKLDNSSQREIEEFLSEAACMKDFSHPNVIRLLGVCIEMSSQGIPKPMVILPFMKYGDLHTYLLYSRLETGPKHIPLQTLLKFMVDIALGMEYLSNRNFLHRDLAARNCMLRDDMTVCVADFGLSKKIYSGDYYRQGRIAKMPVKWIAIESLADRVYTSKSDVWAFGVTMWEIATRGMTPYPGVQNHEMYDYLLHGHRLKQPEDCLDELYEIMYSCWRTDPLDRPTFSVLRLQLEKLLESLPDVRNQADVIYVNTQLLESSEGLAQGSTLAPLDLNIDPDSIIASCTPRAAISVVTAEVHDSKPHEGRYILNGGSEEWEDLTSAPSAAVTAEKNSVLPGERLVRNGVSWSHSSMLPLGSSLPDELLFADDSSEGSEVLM

[9] = biological target: FGFR3 (UniProt P22607); assay: as above
[10] = tested on: c-Src; assay: as above
[11] = biological target: Jak2 (UniProt O60674); assay: as above
Chain of Jak2 (O60674 whole entry, looked up): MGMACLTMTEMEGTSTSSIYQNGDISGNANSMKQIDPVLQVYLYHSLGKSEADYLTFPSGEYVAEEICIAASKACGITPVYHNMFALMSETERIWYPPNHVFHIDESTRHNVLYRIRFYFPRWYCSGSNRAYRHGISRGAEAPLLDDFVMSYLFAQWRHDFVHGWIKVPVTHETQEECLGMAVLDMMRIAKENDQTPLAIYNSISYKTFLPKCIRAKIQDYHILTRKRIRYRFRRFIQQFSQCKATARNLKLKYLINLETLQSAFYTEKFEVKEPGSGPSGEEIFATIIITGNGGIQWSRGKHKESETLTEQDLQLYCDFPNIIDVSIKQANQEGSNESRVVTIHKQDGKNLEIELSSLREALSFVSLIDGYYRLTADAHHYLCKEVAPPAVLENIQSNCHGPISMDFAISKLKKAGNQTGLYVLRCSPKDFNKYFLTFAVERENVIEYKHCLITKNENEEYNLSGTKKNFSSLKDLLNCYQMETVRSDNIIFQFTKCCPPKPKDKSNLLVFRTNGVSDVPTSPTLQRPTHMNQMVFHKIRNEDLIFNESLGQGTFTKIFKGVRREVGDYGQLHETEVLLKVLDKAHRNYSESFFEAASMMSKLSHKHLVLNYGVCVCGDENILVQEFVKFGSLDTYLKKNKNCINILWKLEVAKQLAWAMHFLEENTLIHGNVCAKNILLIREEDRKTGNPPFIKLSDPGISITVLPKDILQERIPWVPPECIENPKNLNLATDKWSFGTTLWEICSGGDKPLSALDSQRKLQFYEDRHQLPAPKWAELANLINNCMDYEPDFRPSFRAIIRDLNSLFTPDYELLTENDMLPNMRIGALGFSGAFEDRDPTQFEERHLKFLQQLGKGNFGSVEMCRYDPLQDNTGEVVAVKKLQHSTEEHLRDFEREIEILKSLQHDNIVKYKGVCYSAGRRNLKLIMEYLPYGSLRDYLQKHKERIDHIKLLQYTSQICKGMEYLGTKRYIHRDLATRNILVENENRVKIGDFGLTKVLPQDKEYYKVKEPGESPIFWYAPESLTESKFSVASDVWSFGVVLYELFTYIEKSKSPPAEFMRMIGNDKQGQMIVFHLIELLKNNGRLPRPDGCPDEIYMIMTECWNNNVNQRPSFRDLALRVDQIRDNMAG

[12] = tested on: c-Abl (mouse); assay: as above
[13] = biological target: FGFR1 (UniProt P11362); assay: as above
Chain of FGFR1 (P11362 whole entry, looked up): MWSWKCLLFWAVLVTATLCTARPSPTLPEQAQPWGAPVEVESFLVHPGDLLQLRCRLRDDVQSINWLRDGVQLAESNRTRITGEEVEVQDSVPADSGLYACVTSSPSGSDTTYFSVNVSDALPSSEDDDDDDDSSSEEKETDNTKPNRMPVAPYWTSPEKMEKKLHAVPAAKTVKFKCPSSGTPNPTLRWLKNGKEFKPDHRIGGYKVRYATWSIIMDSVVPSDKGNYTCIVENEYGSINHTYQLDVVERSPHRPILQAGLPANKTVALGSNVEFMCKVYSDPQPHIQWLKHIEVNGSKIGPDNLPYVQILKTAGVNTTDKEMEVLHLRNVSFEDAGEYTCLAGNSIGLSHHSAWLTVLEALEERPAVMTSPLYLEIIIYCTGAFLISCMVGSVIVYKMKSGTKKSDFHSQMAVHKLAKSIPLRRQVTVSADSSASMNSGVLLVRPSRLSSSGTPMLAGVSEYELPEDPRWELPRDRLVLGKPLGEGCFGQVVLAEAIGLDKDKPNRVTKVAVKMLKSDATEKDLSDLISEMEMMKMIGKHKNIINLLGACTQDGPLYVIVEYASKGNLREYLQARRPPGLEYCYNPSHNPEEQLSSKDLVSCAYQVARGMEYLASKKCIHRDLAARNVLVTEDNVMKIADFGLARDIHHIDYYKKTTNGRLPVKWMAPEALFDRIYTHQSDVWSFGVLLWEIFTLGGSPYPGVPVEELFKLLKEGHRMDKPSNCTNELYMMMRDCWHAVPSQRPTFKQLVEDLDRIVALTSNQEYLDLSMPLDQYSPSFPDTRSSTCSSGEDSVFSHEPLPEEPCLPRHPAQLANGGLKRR

[14] = biological target: EPHB2 (UniProt P29323); assay: as above
[15] = biological target: Fes (UniProt P07332); assay: as above
Chain of Fes (P07332 whole entry, looked up): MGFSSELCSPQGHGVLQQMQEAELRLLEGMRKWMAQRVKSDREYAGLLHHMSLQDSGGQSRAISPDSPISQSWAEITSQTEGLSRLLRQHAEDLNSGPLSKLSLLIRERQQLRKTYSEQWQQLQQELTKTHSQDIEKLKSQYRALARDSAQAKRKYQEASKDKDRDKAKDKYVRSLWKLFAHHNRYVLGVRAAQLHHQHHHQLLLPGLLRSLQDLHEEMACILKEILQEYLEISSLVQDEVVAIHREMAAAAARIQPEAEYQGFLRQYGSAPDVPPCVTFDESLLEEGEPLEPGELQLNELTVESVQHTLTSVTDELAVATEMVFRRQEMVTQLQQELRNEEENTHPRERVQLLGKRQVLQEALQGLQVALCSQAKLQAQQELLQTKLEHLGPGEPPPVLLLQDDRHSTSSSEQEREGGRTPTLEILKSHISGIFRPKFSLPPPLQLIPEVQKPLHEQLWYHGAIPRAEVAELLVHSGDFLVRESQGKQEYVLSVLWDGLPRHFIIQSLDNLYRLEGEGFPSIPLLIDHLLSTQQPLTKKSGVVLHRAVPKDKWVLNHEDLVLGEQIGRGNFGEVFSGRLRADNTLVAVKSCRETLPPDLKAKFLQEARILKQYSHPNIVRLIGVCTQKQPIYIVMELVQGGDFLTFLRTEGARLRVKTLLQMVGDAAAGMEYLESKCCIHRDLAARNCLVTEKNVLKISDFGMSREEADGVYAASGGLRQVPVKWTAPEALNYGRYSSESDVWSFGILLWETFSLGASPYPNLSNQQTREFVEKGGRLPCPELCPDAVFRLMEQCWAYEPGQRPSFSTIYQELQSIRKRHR

[16] = tested on: Fer (mouse); assay: as above
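For SH2 binding enrichment of the phosphorylated peptide, bacterial display in this document: peptide library displayed on the E. coli surface as eCPX fusions, selected cells deep-sequenced, score is each peptide's frequency after selection divided by its frequency in the input.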
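For phosphorylation enrichment, bacterial display in this document: 11-residue human phosphosite peptides and single-mutation variants displayed on the E. coli surface, counted by deep sequencing, each peptide's frequency after selection divided by its frequency in the unselected input library; frequency after pTyr selection over input frequency; kinase dosed for 20-30% of maximal phosphorylation in three min.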

Chain of Grb2 SH2 (P62993 whole entry, looked up): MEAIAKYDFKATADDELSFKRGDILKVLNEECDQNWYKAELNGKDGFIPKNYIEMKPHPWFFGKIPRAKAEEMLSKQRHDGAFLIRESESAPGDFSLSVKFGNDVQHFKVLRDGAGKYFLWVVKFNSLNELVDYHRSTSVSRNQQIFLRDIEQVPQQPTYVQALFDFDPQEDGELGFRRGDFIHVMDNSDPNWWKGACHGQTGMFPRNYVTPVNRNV

| Sequence | SH2 binding enrichment [1] | SH2 binding enrichment [2] | SH2 binding enrichment [3] | phosphorylation enrichment [4] | phosphorylation enrichment [5] | phosphorylation enrichment [6] | phosphorylation enrichment [7] | phosphorylation enrichment [8] | phosphorylation enrichment [9] | phosphorylation enrichment [10] | phosphorylation enrichment [11] | phosphorylation enrichment [12] | phosphorylation enrichment [13] | phosphorylation enrichment [14] | phosphorylation enrichment [15] | phosphorylation enrichment [16] |
| --- | --- | --- | --- | --- | --- | --- | --- | --- | --- | --- | --- | --- | --- | --- | --- | --- |
| TLNHQYDYTFD [CSNK1A1_Y292] | 9.88 | 0.779 | 0.691 | 0.536 | 1.05 | 0.512 | 0.519 | 0.453 | 0.824 | 1.27 | 0.783 | 0.565 | 0.85 | 0.706 | 0.964 | 0.432 |
| TLRETYGEMAD [ALB_Y108] | 0.91 | 1.11 | 0.579 | 0.555 | 0.999 | 0.54 | 0.627 | 0.454 | 0.836 | 0.702 | 0.982 | 0.885 | 0.519 | 0.559 | 1.2 | 0.446 |
| TMKSHYMELFD [BBS2_Y644_R643H_YF] | 7.06 | 0.824 | 1.48 | 0.601 | 1.1 | 0.764 | 0.51 | 0.893 | 0.72 | 0.431 | 0.772 | 0.572 | 0.708 | 0.582 | 0.966 | 0.547 |
| TNEYEYDELIV [TGM1_Y136_D132N] | 0.84 | 0.798 | 0.854 | 0.769 | 1.45 | 0.814 | 0.952 | 0.525 | 0.925 | 0.981 | 1.29 | 0.962 | 0.809 | 0.975 | 1.23 | 0.593 |
| TPGPNYRPGFN [USH2A_Y463_YF] | 0.416 | 0.776 | 0.505 | 0.586 | 0.707 | 0.531 | 0.536 | 0.87 | 0.646 | 0.452 | 0.675 | 0.576 | 0.647 | 0.436 | 0.716 | 0.498 |
| TQTPPYVKKHR [LARP1B_Y457_P462R] | 0.954 | 1.18 | 0.956 | 0.649 | 0.774 | 0.575 | 0.531 | 0.541 | 1.22 | 0.624 | 1.04 | 1.18 | 0.683 | 0.545 | 1.23 | 0.684 |
| TRTDAYAVSSF | 0.837 | 0.729 | 0.525 | 0.357 | 0.78 | 0.383 | 0.419 | 0.388 | 0.534 | 0.443 | 1.08 | 0.645 | 0.567 | 0.464 | 0.657 | 0.405 |
| TTPGPYRSIYF [MPG_Y71] | 2.11 | 1.48 | 6.08 | 0.662 | 0.595 | 0.268 | 0.641 | 0.422 | 0.515 | 1.27 | 0.433 | 0.547 | 0.44 | 0.278 | 1 | 0.54 |
| TVVGLYQKSSL [MYH7_Y609] | 0.619 | 0.872 | 0.67 | 0.685 | 0.973 | 0.567 | 0.55 | 0.627 | 0.75 | 0.483 | 0.849 | 0.793 | 0.483 | 0.638 | 0.988 | 0.675 |
| TWSSSYRSDRL [CRYBB1_Y131] | 0.473 | 0.997 | 0.722 | 0.419 | 0.682 | 0.441 | 0.456 | 0.448 | 0.389 | 0.451 | 0.621 | 0.593 | 0.398 | 0.608 | 1.07 | 0.477 |
| VATSWYRSPEL [CDKL5_Y177_R175S] | 0.549 | 0.827 | 0.77 | 0.469 | 0.768 | 0.417 | 0.466 | 0.412 | 0.545 | 0.344 | 0.548 | 0.427 | 0.553 | 0.435 | 0.656 | 0.409 |
| VDGSLYKTHPQ [HK1_Y417] | 0.465 | 0.765 | 0.596 | 0.365 | 0.472 | 0.436 | 0.44 | 0.378 | 0.419 | 0.385 | 0.409 | 0.425 | 0.338 | 0.389 | 0.556 | 0.421 |
| VDLSKCITTIA [FAS_Y232_Y232C] | 0.374 | 0.742 | 0.529 | 0.431 | 0.975 | 0.626 | 0.402 | 0.364 | 0.641 | 0.308 | 0.697 | 0.681 | 0.461 | 0.533 | 1.01 | 0.413 |
| VDTFWYKFLKR [EPM2A_Y86] | 0.602 | 0.957 | 1.04 | 0.467 | 1.21 | 0.657 | 0.406 | 0.432 | 0.716 | 0.371 | 1.05 | 0.78 | 0.553 | 0.629 | 1.18 | 0.525 |
| VEGISYDFIPT [CBS_Y308_G307S] | 2.11 | 0.654 | 0.633 | 1.9 | 1.28 | 0.578 | 0.529 | 2.96 | 0.941 | 0.596 | 0.984 | 0.754 | 0.564 | 0.568 | 0.982 | 0.96 |
| VFLGAYDCFLP [SLC22A5_Y486_R488C_YF] | 0.951 | 0.947 | 0.749 | 3.27 | 1.6 | 2.6 | 5.7 | 5.67 | 0.757 | 4.75 | 1.17 | 0.953 | 0.631 | 4.47 | 1.28 | 4.68 |
| VGSEDYGRDLT [SPTAN1_Y1792] | 0.369 | 0.63 | 0.571 | 0.592 | 1.1 | 0.626 | 0.588 | 0.456 | 1.04 | 0.513 | 1.24 | 1.04 | 0.564 | 0.587 | 1.44 | 0.621 |

| Sequence | SH2 binding enrichment [1] | SH2 binding enrichment [2] | SH2 binding enrichment [3] | phosphorylation enrichment [4] | phosphorylation enrichment [5] | phosphorylation enrichment [6] | phosphorylation enrichment [7] | phosphorylation enrichment [8] | phosphorylation enrichment [9] | phosphorylation enrichment [10] | phosphorylation enrichment [11] | phosphorylation enrichment [12] | phosphorylation enrichment [13] | phosphorylation enrichment [14] | phosphorylation enrichment [15] | phosphorylation enrichment [16] |
| --- | --- | --- | --- | --- | --- | --- | --- | --- | --- | --- | --- | --- | --- | --- | --- | --- |
| VGTKWYMAPEV [ACVRL1_Y375_R374W] | 0.737 | 0.956 | 0.674 | 0.458 | 0.899 | 1.78 | 0.364 | 2.9 | 0.747 | 0.416 | 0.963 | 0.726 | 0.827 | 1.93 | 0.764 | 0.374 |
| VKANTYEKYWP [GATM_Y100] | 1.02 | 1.12 | 0.888 | 1.01 | 0.785 | 0.59 | 1.32 | 0.976 | 0.471 | 2.02 | 0.728 | 0.492 | 0.454 | 0.825 | 0.71 | 0.506 |
| VLSIDYFFPPQ [AR_Y552_P549S_YF] | 0.852 | 1.46 | 0.998 | 0.572 | 5.83 | 1.08 | 0.497 | 0.719 | 10.5 | 0.827 | 1.58 | 0.784 | 12.7 | 0.843 | 1.12 | 0.516 |
| VLVSQYEKLNA [AMZ2_Y26] | 2.71 | 0.915 | 0.632 | 0.467 | 0.619 | 0.524 | 0.438 | 0.434 | 0.548 | 0.389 | 0.638 | 0.578 | 0.362 | 0.341 | 0.732 | 0.417 |
| VNFGAYINDFK [GLB1_Y488_YF] | 0.625 | 1.74 | 0.551 | 0.441 | 0.909 | 0.545 | 0.498 | 0.352 | 0.621 | 0.369 | 0.83 | 0.558 | 0.459 | 0.568 | 0.997 | 0.393 |
| VNLVLHLSIAK [FBXO15_Y496_Y496H] | 0.351 | 0.652 | 0.511 | 0.588 | 1.15 | 0.583 | 0.492 | 0.391 | 0.85 | 0.446 | 1.36 | 0.88 | 0.476 | 0.609 | 1.36 | 0.799 |
| VQSASYLNDCL [MCM3AP_Y864_A867D] | 0.572 | 2.03 | 0.875 | 0.502 | 0.788 | 0.536 | 0.448 | 0.447 | 0.712 | 0.422 | 0.798 | 0.693 | 0.757 | 0.602 | 0.97 | 0.487 |
| VQVAYYTVMMN [SPATA17_Y84_M86V] | 1.93 | 1.63 | 0.952 | 1.69 | 1.79 | 2.88 | 1.7 | 4.41 | 4.41 | 2.03 | 3.06 | 1.01 | 5.77 | 1.47 | 1.71 | 1.97 |
| VRFVDYVLFRS [FAM189B_Y361_S358F] | 1.44 | 2.04 | 1.77 | 0.499 | 1 | 2.13 | 0.542 | 0.461 | 1.65 | 0.477 | 1.01 | 0.764 | 2.27 | 0.919 | 1.1 | 0.458 |
| VRQQVYKKVEE [HADHA_Y283] | 0.427 | 0.736 | 0.513 | 0.387 | 0.617 | 0.378 | 0.44 | 0.346 | 0.536 | 0.397 | 0.639 | 0.446 | 0.344 | 0.411 | 0.716 | 0.331 |
| VRRRSYSAGNA [KANK1_Y324_K321R] | 0.488 | 0.706 | 0.557 | 0.516 | 0.567 | 0.404 | 0.504 | 0.509 | 0.742 | 0.58 | 0.471 | 0.613 | 0.549 | 0.603 | 0.49 | 0.664 |
| VSKGGYFSVNL [C3orf33_Y164] | 2.06 | 0.872 | 1.07 | 0.483 | 0.875 | 0.556 | 0.485 | 0.418 | 0.599 | 0.44 | 1.08 | 0.682 | 0.428 | 0.672 | 0.972 | 0.423 |
| VTDGKYAFKPK [GTF2E2_Y137_I133T] | 0.452 | 0.783 | 0.847 | 0.459 | 0.491 | 0.299 | 0.355 | 0.361 | 0.419 | 0.361 | 0.521 | 0.575 | 0.411 | 0.262 | 0.64 | 0.31 |
| VVEFGYEFFAK [PPP1CB_Y254_D252Y_YF] | 1.09 | 0.96 | 0.635 | 0.559 | 1.52 | 0.583 | 0.573 | 0.488 | 0.829 | 0.503 | 1.41 | 0.965 | 0.558 | 0.52 | 1.26 | 0.553 |
| VVLEDYLDIKN [CLCNKB_Y138] | 0.497 | 0.747 | 0.786 | 0.434 | 1.02 | 0.499 | 0.534 | 0.464 | 0.608 | 0.421 | 1.07 | 0.576 | 0.668 | 0.671 | 1.2 | 0.391 |
| VVLGSYDRLRV [IFT172_Y260] | 1.17 | 0.724 | 0.863 | 1.11 | 0.584 | 0.442 | 0.404 | 0.341 | 0.582 | 0.405 | 0.546 | 0.452 | 0.45 | 0.451 | 0.75 | 0.45 |
